Source: US20020001840A1

Target: purified αvβ3 integrin (UniProt P06756)
Assay: cell-based or functional assay

purified αvβ3 integrin, sequence (P06756 31-1048, form in doubt, chain 1 of 2): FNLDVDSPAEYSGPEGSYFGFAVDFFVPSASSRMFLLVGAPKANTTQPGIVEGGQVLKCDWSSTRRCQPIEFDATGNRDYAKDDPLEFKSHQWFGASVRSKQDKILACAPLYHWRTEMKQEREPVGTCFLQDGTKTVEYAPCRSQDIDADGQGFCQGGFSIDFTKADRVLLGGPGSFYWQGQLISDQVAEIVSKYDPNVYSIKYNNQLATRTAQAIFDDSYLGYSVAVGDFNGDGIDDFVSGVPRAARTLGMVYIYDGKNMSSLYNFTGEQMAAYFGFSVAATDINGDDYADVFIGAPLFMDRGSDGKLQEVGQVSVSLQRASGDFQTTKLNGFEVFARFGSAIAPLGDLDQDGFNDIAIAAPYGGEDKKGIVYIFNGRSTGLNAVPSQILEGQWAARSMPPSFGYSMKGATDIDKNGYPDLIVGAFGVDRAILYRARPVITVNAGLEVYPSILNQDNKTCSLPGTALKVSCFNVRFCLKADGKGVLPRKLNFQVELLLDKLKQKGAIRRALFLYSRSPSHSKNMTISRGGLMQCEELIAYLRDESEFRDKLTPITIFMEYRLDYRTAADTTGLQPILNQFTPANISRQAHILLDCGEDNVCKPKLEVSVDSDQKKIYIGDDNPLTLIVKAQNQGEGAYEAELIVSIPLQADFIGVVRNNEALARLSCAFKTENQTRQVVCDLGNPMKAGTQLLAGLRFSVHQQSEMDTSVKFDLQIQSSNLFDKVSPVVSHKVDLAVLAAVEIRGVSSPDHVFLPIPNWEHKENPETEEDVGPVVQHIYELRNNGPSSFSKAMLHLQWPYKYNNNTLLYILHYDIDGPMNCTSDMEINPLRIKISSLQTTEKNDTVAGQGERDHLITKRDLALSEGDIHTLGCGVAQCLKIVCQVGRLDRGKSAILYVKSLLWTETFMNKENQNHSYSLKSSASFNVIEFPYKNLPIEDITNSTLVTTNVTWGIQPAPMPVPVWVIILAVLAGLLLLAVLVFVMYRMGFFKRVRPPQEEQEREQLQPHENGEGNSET
purified αvβ3 integrin, sequence (P05106 27-788, form in doubt, chain 2 of 2, further chain): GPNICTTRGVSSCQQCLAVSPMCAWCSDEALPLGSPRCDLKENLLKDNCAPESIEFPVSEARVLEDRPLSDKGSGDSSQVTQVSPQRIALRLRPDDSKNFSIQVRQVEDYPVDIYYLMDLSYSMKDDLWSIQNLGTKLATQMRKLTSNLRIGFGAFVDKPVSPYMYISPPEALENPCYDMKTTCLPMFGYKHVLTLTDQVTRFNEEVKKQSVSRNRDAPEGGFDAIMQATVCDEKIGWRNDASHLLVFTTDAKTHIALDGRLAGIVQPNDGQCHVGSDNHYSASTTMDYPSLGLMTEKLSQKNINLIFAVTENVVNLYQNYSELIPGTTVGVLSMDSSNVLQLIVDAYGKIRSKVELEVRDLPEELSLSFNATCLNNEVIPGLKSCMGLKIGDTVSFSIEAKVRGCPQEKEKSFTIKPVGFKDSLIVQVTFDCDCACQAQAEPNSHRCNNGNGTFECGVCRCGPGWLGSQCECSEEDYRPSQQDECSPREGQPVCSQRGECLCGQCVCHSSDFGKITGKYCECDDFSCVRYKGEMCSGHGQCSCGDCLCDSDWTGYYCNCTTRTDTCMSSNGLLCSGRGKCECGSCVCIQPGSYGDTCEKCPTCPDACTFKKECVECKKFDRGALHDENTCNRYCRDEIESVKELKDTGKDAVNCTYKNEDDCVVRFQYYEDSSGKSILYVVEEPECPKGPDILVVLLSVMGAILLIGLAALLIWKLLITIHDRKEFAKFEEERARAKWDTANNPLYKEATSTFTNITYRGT

Substance: mutADAM 23 disintegrin-like domain (E466A) expressed as a fusion protein with GST (from UniProt O75077 498-588)
- cell adhesion promoting effect, SH-Sy5y neuroblastoma cells: 40%
